Measurements published in publication PMC8044209.

What was measured:
Med15 ABD1 (yeast) = Med15 ABD1 (yeast) (UniProt P19659); test: ITC; Gal4 AD in the syringe (1.11 mM), Med15 domain in the cell (ABD1 0.102 mM; ABD2 0.11 mM); 22 °C; 20 mM KH2PO4 pH 7.5, 200 mM KCl; single binding site model
Med15 ABD2 (yeast) = Med15 ABD2 (yeast) (UniProt P19659); test: as above
[1] = molecular target: Gal4 AD (residues 828–881) labeled with Oregon Green 488 (yeast) (UniProt P04386); test: fluorescence polarisation; Oregon Green 488-labelled Gal4 AD; 15 concentrations of Med15 spanning 0–250 μM; 22 °C; 20 mM KH2PO4 pH 7.5, 200 mM KCl; one-site total binding model
[2] = molecular target: Gal4 AD (Gal4 residues 828–881) (yeast) (UniProt P04386); test: NMR titration; (1H,15N)- and (1H,13C)-HSQC titrations; unlabeled Gal4 AD or ABD added to ~200 μM 13C,15N-labelled AD or ABD; 25 °C; 20 mM sodium phosphate, 150 mM NaCl, 0.1 mM EDTA, 5 mM DTT, pH 6.5
[3] = molecular target: Gcn4 cAD (Saccharomyces cerevisiae) (UniProt P03069); test: FP; details: cited from earlier work
[4] = molecular target: Gcn4 nAD (Saccharomyces cerevisiae) (UniProt P03069); test: FP; details: cited from earlier work
[5] = molecular target: Gcn4 tAD (Saccharomyces cerevisiae) (UniProt P03069); test: FP; details: cited from earlier work

Row | Substance | Kd [1] | Kd [3] | Kd [4] | Kd [5] | other results
1 | Gal4 AD (Gal4 residues 828–881) (from UniProt P04386 828-881) (domain or fragment) |  |  |  |  | Kd (Med15 ABD1 (yeast)): 9.2 µM; Kd (Med15 ABD2 (yeast)): 35 µM
2 | Med15 158–651 Δ239–272, Δ373–483 (ABD123) (from UniProt P19659 158-651) (domain or fragment) | 2.04 µM |  |  |  | 
3 | Med15 484–651 (ABD3) (from UniProt P19659 484-651) (domain or fragment) | 16.2 µM |  |  |  | 
4 | Med15 ABD1 (from UniProt P19659 158-238) (domain or fragment) | 9.24 µM |  |  |  | exchange rate [2]: > 250 s⁻¹; lifetime of the bound state [2]: < 4 ms
5 | Med15 ABD1 (from UniProt P19659) |  | 2.5 µM | 3.3 µM | 2.66 µM | 
6 | Med15 ABD2 (from UniProt P19659 277-368) (domain or fragment) | 98 µM |  |  |  | 
7 | Med15 ABD2 (from UniProt P19659) |  | 147 µM | 21.8 µM | 19.5 µM | 
8 | Med15 ABD3 (from UniProt P19659) |  | 13.9 µM | 2.6 µM | 4.4 µM | 
9 | Med15 ABD123 (from UniProt P19659) |  |  | 0.36 µM |  | 
